Non-standard residues stand in square brackets, D forms with d. Phe(4-NO2) = N[C@@H](Cc1ccc([N+](=O)[O-])cc1)C(=O)O
Biological target: T1, acceptor hexapeptide Ac-DQNATF{4NO2}-NH2 (SMILES CC(=O)N[C@@H](CC(=O)O)C(=O)N[C@@H](CCC(N)=O)C(=O)N[C@@H](CC(N)=O)C(=O)N[C@@H](C)C(=O)N[C@H](C(=O)N[C@@H](Cc1ccc([N+](=O)[O-])cc1)C(N)=O)[C@@H](C)O)
T1 construct: also called DQNATF{pNO2}; acceptor peptide
T1 peptide: Ac-DQNAT[Phe(4-NO2)]-NH2
Assay: calculated from the X-ray co-crystal structure with areaimol

B1: oligosaccharyltransferase (OST) PgIB from Campylobacter lari, full length, with C-terminal decahistidine affinity tag (expressed from pSF2, purified in DDM and … (enzyme)
chain: MELQQNFTDNNSIKYTCILILIAFAFSVLCRLYWVAWASEFYEFFFNDQLMITTNDGYAFAEGARDMIAGFHQPNDLSYFGSSLSTLTYWLYSILPFSFESIILYMSTFFASLIVVPIILIAREYKLTTYGFIAALLGSIANSYYNRTMSGYYDTDMLVLVLPMLILLTFIRLTINKDIFTLLLSPIFIMIYLWWYPSSYSLNFAMIGLFGLYTLVFHRKEKIFYLAIALMIIALSMLAWQYKLALIVLLFAIFAFKEEKINFYMIWALIFISISILHLSGGLDPVLYQLKFYVFKASDVQNLKDAAFMYFNVNETIMEVNTIDPEVFMQRISSSVLVFILSFIGFILLCKDHKSMLLALPMLALGFMALRAGLRFTIYAVPVMALGFGYFLYAFFNFLEKKQIKLSLRNKNILLILIAFFSISPALMHIYYYKSSTVFTSYEASILNDLKNKAQREDYVVAWWDYGYPIRYYSDVKTLIDGGKHLGKDNFFSSFVLSKEQIPAANMARLSVEYTEKSFKENYPDVLKAMVKDYNQTSAKDFLESLNDKNFKFDTNKTRDVYIYMPYRMLRIMPVVAQFANTNPDNGEQEKSLFFSQANAIAQDKTTGSVMLDNGVEIINDFRALKVEGASIPLKAFVDIESITNGKFYYNEIDSKAQIYLLFLREYKSFVILDESLYNSAYIQMFLLNQYDQDLFEQVTNDTRAKIYRLKR
notes: Residues 283-306, 605-607 and the His tag are disordered in the structure; also called C. lari PgIB; PglB
For B1, the “contact surface of the peptide buried at the interface of the TM and periplasmic domains” value was about 80%.

From patent US20140100836A1 (ETH ZURICH, published 2014)
